Patent US20190023745A1

Legend:
[1] = molecular target: Zika virus MR766 envelope (E) protein, on virus particles (Zika virus strain MR766) (UniProt Q32ZE1); test: cell-based or functional assay
[2] = molecular target: Zika virus H/PF/2013 envelope (E) protein, on virus particles (Zika virus strain H/PF/2013); test: cell-based or functional assay

**Q.** With EDE1 C8 monoclonal antibody as the substance, how does the EC50, neutralization in Vero cells [1] read?
**A.** The EC50, neutralization in Vero cells was 0.89 ng/mL.

**Q.** EDE1 C10 monoclonal antibody was tested. Which PRNT50 (plaque reduction neutralization test, BHK-21 cells) [2] did it give?
**A.** Its PRNT50 (plaque reduction neutralization test, BHK-21 cells) is 0.024 µg/mL.

**Q.** And the EC50, neutralization in Vero cells [1]?
**A.** Its EC50, neutralization in Vero cells is 0.34 ng/mL.
